Reference: article PMC8034618

System: LARP1 C-terminal fragment (extended DM15) WT (Homo sapiens)
Test: EMSA
Details: m7Gppp cap; EMSA: 20 mM Tris-HCl pH 8, 150 mM NaCl, 10% glycerol, 1 mM DTT, 0.5 ug tRNA, 1 ug BSA in 10 ul; on ice 30 min; 7-8% native 0.5x TBE gel at 4 C; RNA <=200 pM

m7G-RPS6-UTR (capped RPS6 20-mer)
Kd: 153 nM
